Assay results: patent US20230227537A1 (VIB VZW, published 2023)

How the values were obtained:
[1] = target: SARS-CoV-1 spike, full length, on cells or on pseudotyped virus (SARS-CoV-1, UniProt P59594 14-1255); experiment: cell-based or functional assay
[2] = target: SARS-CoV-2 RBD protein Avi-tag biotinylated (AcroBiosystems SPD-C82E9) (SARS-CoV-2, UniProt P0DTC2 330-518)
[3] = target: SARS-CoV RBD (SARS-CoV-1, UniProt P59594 320-502)

B1: VHH72_h1 (VHH)
VHH: EVQLVESGGGLVQPGGSLRLSCAASGRTFSEYAMGWFRQAPGKEREFVATISWSGGSTYYTDSVKGRFTISRDNAKNTVYLQMNSLRPEDTAVYYCAAAGLGTVVSEWDYDYDYWGQGTLVTVSS
For B1, the “IC50, VSV-dG SARS-CoV-1 spike pseudotype neutralization” value [1] was 0.491 µg/mL.

B2: VHH72_h1(S56A) (VHH)
VHH: EVQLVESGGGLVQPGGSLRLSCAASGRTFSEYAMGWFRQAPGKEREFVATISWSGGATYYTDSVKGRFTISRDNAKNTVYLQMNSLRPEDTAVYYCAAAGLGTVVSEWDYDYDYWGQGTLVTVSS
In the case of B2, the “IC50, VSV-dG SARS-CoV-1 spike pseudotype neutralization” value [1] is reported as 0.045 µg/mL and the “fold better neutralization than parental VHH72” value [1] is reported as 10 fold.

B3: SARS VHH-72 (VHH)
VHH: QVQLQESGGGLVQAGGSLRLSCAASGRTFSEYAMGWFRQAPGKEREFVATISWSGGSTYYTDSVKGRFTISRDNAKNTVYLQMNSLKPDDTAVYYCAAAGLGTVVSEWDYDYDYWGQGTQVTVSS
For B3, the IC50 [2] was 16 nM.

B4: VHH72_h1 (E1D) (VHH)
VHH: DVQLVESGGGLVQPGGSLRLSCAASGRTFSEYAMGWFRQAPGKEREFVATISWSGGSTYYTDSVKGRFTISRDNAKNTVYLQMNSLRPEDTAVYYCAAAGLGTVVSEWDYDYDYWGQGTLVTVSS
In the case of B4, the koff [3] is reported as 0.00219 s⁻¹.
